Test results published in publication PMC4490510, “Cloning, Expression and Characterization of a Thermostable Esterase HydS14 from Actinomadura sp. Strain S14 in Pichia pastoris” (International Journal of Molecular Sciences, 2015).

Tests used:
[1] = system: T1, CCCC(=O)Oc1ccc([N+](=O)[O-])cc1; experiment: purified protein; assay type: biochemical, Actinomadura sp. S14; conditions: 50 mM Tris-HCl pH 8.0, 50 °C, 0.4% Triton X-100, 0.1% gum arabic
T1 construct: ORF 258 aa, 26,604 Da, no signal peptide; secreted from Pichia pastoris X33 via pPICZalphaA with 6xHis tag (predicted 29,117 Da, ~30 kDa SDS-PAGE), Ni-Sepharose purified, not N-glycosylated

[2] = system: T2, CC(=O)Oc1ccc([N+](=O)[O-])cc1; experiment: purified protein; assay type: biochemical, Actinomadura sp. S14; conditions: 50 mM Tris-HCl pH 8.0, 50 °C, 0.4% Triton X-100, 0.1% gum arabic
T2 construct: ORF 258 aa, 26,604 Da, no signal peptide; secreted from Pichia pastoris X33 via pPICZalphaA with 6xHis tag (predicted 29,117 Da, ~30 kDa SDS-PAGE), Ni-Sepharose purified, not N-glycosylated

## HydS14 (Actinomadura sp. S14)
[1]
  Km: 0.21 ± 0.02 mM
  Vmax: 37.1 µmol/min/mg
  kcat: 2.47 ± 0.07 s⁻¹
  kcat/Km: 11700 ± 780 M⁻¹ s⁻¹
[2]
  Km: 0.36 ± 0.01 mM
  Vmax: 35.3 µmol/min/mg
  kcat: 2.37 ± 0.06 s⁻¹
  kcat/Km: 6590 ± 40 M⁻¹ s⁻¹
